Assay: label from the status in PepcDB records
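Note: failed if final PepcDB status was selected cloned or expressed and not failed if soluble or beyond.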

Sequence | protein production
MADDIRILMCPPDHYDVDYVINPWMEGNIHKSSQERAVEQWKKLHQTIKECAIVDLVKPAKGWPDMVFTANAGLVLGENVVLSRFYHKERQGEEPYFKAWFEENGFTVYELPQDLPFEGAGDALFDREGRWLWAGYGFRSELDSHPYIAKWLDTEVVSLRLIDERFYHLDTCFCPLSGGYLLYYPPAFDAYSNRVIEMRIPPEKRIIVEELDAVNFACNAVNVNDIIIMNLVSRTLKEKLAEAGFKVRETPLTEFLKAGGAAKCLTLRVTEPILPDVHATVSIESRVIRMEGHLLDAGILNQALDLVVENSGSFRVLNFNLGVERNSTSSAEVRVSAPSHQIMEEIMTELIDLGAVPPPQELCDINTETVTQGGVAPDDFYVSTIYPTEVRVNCEWVQVTGQRMDAAIVVTSNPPSARCVLLRDLQVGDRVMVGVEGIRTIKKVESHEGGTRKENKEFAFMAAGVSSERRVELLVEQIAWEMRQIRDQGGKIVVTAGPVVIHTGGAQHLSHLVREGYVHALLGGNAIAVHDIEQATMGTSLGVDMQRGIPVRGGHRHHLKIINSVRRYGGIRQAVEAGFISKGVMYECVKNNIPYCLAGSIRDDGPLPDTEMNLVRAQSRYSELIQGADMILMLSSMLHSIGVGNMTPSGVKMVCVDINPAVVTKLSDRGSVESVGVVTDVGLFLSLLVRQLQQLTRPYSLAETL | failed
MSLTESARIDGVSLYEIVIPMKIPFQISSGTCYTRRSLVVEIREGDLFGYGESAPFEEPFYLGETLETTKVILKNHLLPMILGKEPLSIEEFNHLIKNGIRGNHFARCGVENAYWDLIAKKNKISLKAMIEKKMKNLGVKQEYLASNNYIESGAALGIPEDGRIETLIHQVEESLQEGYRRIKIKIKPGWDVEPLQETRRAVGDHFPLWTDANSSFELDQWETFKAMDAAKCLFHEQPLHYEALLDLKELGERIETPICLDESLISSRVAEFVAKLGISNIWNIKIQRVGGLLEAIKIYKIATDNGIKLWGGTMPESGLGARFLISLASFRGFVFPADVAASEKWYGKGNDLVENTMTDGKIYVPDEPGASFDMTLSHLEALGKKIWESQRGEGHHHHHH | not failed
MSLDARFDIAHLARAELFSPKPQETLDFFTKFLGMYVTHREGQSVYLRGYEDPYPWSLKITEAPEAGMGHAAMRTSSPEALERRAKSLTDGNVDGTWSEDQFGYGKTFEYQSPDGHNLQLLWEAEKYVAPPELRSKILTRPSKKPLQGIPVKRIDHLNLMSSDVTAVKDSFERHLGFRTTERVVDGNVEIGAWMSSNLLGHEVACMRDMTGGHGKLHHLAFFYGTGQHNIDAVEMFRDYDIQIEAGPDKHGITQSQFLYVFEPGGNRIELFGEAGYLHLDPDAETKTWQMSDIDTGLAVGGAKLPWESYFTYGTPSPLSLDQHIEKYAHFGEGHHHHHH | not failed
MTHLQGVRHAHRQVTAGVRGLTRHLCMVLVGCSLGLVAAGCTREPSSPTARASHSDAAPATPTASPAPASTPPPAADPSVLRVCADPGNMPLSNKAGEGFQNKIAQVVAEAMGRRLEYEWRTYYQRGLARSTINAGRCDVLMDLNSDFEMGLTTRPLYRSPYVLVTRKGLDLVPTSLDDPALKKLRLGVFQSSPARQALYEHGVSGEVKYLFYDSATAPEEHPGKLVERVAAGELDAAESWGPVAGYYAARNNLGVVPLNTIDDAVLEYSMAWAVARKNAALRDALNTALQQSAAKIDEILRSYHVPLVRCADCIVAGDLASHGPYVTPASAPKSTNAATSSQELAQLQLRIADGADPNQELAHALDAGDALRAAWLLRHGADANQPNLLGEPPLHQAIRNQEPDLVGLLIDAGARLDARDGNGWTALMKAAWGNDADSVQRLLARRAPLDTVSSDGWNALELAVSYADVGVVEALLKAGAKARGANRTGFTPVMFAVPREDPAILDALLKHGADVRGANQAGVTALMLAAASGREATAKRLLAAGADPAARNRDGKTAATLAQERGDAALAALLAPGKRSTTQ | failed
MSSGNVFLLSIASSAGMNIRLVHRLIAASCAVVLCSTVGIPAGRAGDPFRSSNPQPISASTAAAFTAAFQQGNYPAAEQALQQALRQDSSDPLVFALAGSLAFAQQNRQAFADYARQTKSKAQAIAPQQPLRSQLYIAVGELMMAASTLLPQLTGDGGVPLAAVPQALQSLQTVYGSLRAAAQINPNDPELNLVQGFVDLIVATNLPLANPSGAIAKLEKASPRYLADRGIALGLRNLKRYPEAIQYVDRAIAAAPENPELRYLKAQILVEQSKATGDANLRRAAAAEFQKALAKSSQLPQPLVWQLFFEACNNQKTFDNRGQDCVSLRDQVTQAPGPWGPATLPPL | failed
LAYEELRQREAQTAMQLAVNNALLTIKDRSRMLLAVCEQIDKLVPCTFLGIRVMDRDGNFRIFDNFMRETPSGFFPVSAHEKLDVPDFAEMARESFSLITSPGCFSGEAFQLLCDKYRLVGLVREKFNICSLISVRLWDLPGSCAGLIISDTSRAFDEHDQETVGLIVPQLSLALQNYLAFEEIDKLRRKLEGEKAYLFEEIKATHD | failed
MKFDRHRRLRSSATMRDMVRENHVRKEDLIYPIFVVEKDDVKKEIKSLPGVYQISLNLLESELKEAYDLGIRAIMFFGVPNSKDDIGTGAYIHDGVIQQATRIAKKMYDDLLIVADTCLCEYTDHGHCGVIDDHTHDVDNDKSLPLLVKTAISQVEAGADIIAPSNMMDGFVAEIRRGLDEAGYYNIPIMSYGVKYASSFFGPFRDAADSAPSFGDRKTYQMDPANRLEALRELESDLKEGCDMMIVKPALSYLDIVRDVKNHTNVPVVAYNVSGEYSMTKAAAQNGWIDEERVVMEQMVSMKRAGADMIITYFAKDICRYLDK | failed
MNVIRLKEDKFREALRLSEYAFQYKVDEDRLQQQITKMKESHEVYGIMEGENLAAKLHLIPFHIYIGKEKFKMGGVAGVATYPEYRRSGYVKELLQHSLQTMKKDGYTVSMLHPFAVSFYRKYGWELCANLLVCHMTKSDLVMKKQVNGTVKRFNKESHPEEVEKLYETFAELFSGMLVRNEKWWLQAVYDDLTLAIYYDENQTAAGYMLYKIENYKMTVEEFVPLHNEARNGLWNFICQHDSMIKDLEMTVSENEPLLYTLQEPRVKTEIKPYFMGRIVDVEQFLKQYELNWNNVQQEVILHITDSFAQWNNITVRIANHEITIIEEPIDKGIKLDINALSTILFGYRRPLELNELELISGSEEEIRAFESVVPVRKPFIYDFF | not failed
LGTVIQENSRSGGEQSANFFVNGPLAENLLLQVYGQYTAREEDDIDYGYEDKDMQSISSKLIYQINDRHSVQLEGGTSAQSRRGNVGLSVPTTGCRRGCEDSLNEYRRNYVTLSHTGEWELLGNSDTYLQREESENKSREMTIVNTTFKSSLVKGLGAHTLTTGVDATHAELEDFTSNKASSKTKASNTQWAVFIEDEWKIAEPFSLTLGGRLDHDENYGAHFSPRVYGVWRVAPAWTVKGGVATGFRSPQLREITPGWAQVSGGGNIYGNPDLDPETSLNKEISVLYQGDSGLDVTLTAFHNEFKDKITRVVCPDTICTDGPNQWGADPTYRINVDEAVTQGVEATLAKPLTETIYLSSSYTFTDSEQKTGEYKGMPLQQLPKHLFNVDVTWQTTDNLESWTKVTYRGKEMDPVTGPSRNSIVEPAYTFVDAGVTYQLTDNTKIKGAIYNLFDEDINYKEYGYVEDGRRYWLGLDVAF | failed
NIGSAVPRGELVLAMEKIGKLLQERGGSVVIRGHTDGRQFKGEANDNWRLSMDRAHSAYYMLVRGGLSEERVKQVSGFADRRLQVPSNPLADANRRIEILLEADR | failed
MSNVRVLATDLAFPEGPVVMPDGSVVLVEIRAQQLTRVWPDGRKEVVAKVPGGPNGAALGPDGKMYICNNGGFGWFPSRGTMMPGAPAPHEYIGGSIQRVDLQSGEVETLFDKCGEHPLKGPNDLVFDKHGGLWFTDLGKRRARDMDVGAAYYIKPGMTEITEQVFGTLPLNGIGLSPDEATMYAAETPTGRLWAFDLSGPGEVKPRDVIYRGEKGKPICGLGGYQMFDSLAVEASGNVCVATLVSGCISVIAPDGTLVEQVPTGDRVTTNIAFGGPDLKTAYITLSGKGELIAMDWSRPGLPLNFLNKLEHHHHHH | failed
MNISLVFPPFHLQSLYNLPPLGLISLATVLGEAGHRAVIRDLVLALRQGSLGMGKELYGEAARMILRDDPDLVGFSAQCTTFPAVVRIARLLKEQKPDLRIVAGGHNVSFLDVPTLERFPWIDAVVRGEGEVTFRELAASFAVGNDPAEVAGVTWRRGTEIVRNPDRELIADLDTLPLPDYTLVPPLASYRDACGIPRSIAILEVGRGCPHRCVYCSESVMWRRRTRTFSIPRLIREMEELHGRFGAECLVLAYDQFTADRRFVEEFCNRVIDARLNRVPWYCISRLDSLDRPLLDLMREAGCESMCYGIDSGSRRTLAFIGKEIDEGILYQRVRETTEAGMVPTLSFVIGFPEEEREDIDQTLFLALKAGVQGNSAPLVQLPTVLAGTELHRRYTGRLVREVDTYFSLGLEFDHGRRLADDERLIDADPFLFSSFYNLPCAGVPLAELDRIARWFPLILNGYPKSFILLSLALGRPPSNLFREILSRLEEDGWREDDPTAETAFLERFPCHAEGLMAGSASWPHFAEILTYETLALRATHRGPPRADGAGPLKGDPAGECRPVLREEVTVSEFRRNLPAIIADLKSGIFRESYPPEPTLLIFYPSGERLEVMEINRFGKDFLLLCNGLATCEEIAATLYGEYGDAMDSGAFSEECKDALTVFTGMGLVRDGAAPAP | failed
MEVVVVGDAQAMAGRVPTVMHVRCPDRLREGVYRQVLELLTDLSPVVQALPPTAALVELKGALRYHGSEVHRLGEVLRVRTLSRLGVDVRVGIGPSITIAATASAQVPLPGGVLTVAPDDVTDWLAPLPGEALHGLGPRQAGALHEYGIHTVGLLAAVSPETVQRLLGGKAGRLAADRARGRDPRPVVPRALPAAATVRMRFDRHVLDGADVRAALLDLVVQLGRLLRRRGQAARAVSLTLQFAGGGSWEKSRRLPEPSAHDEDLRTMAYRLIDAAGLQRGRLTGLFLKADDLVDADRVAQQISLDQAREARLVAEATVDRVRDKFGPGVIGPAATARRAS | failed
MEPTAPAPTPAATRNTESTAKIVYVLYLLSFAAGITTLIGVVMAYVNEGDAPEGLRTHYRFQIRTFWIGLLYAVVGGLLTIVGIGALILLFVAVWLVIRCVKGLKWLDQRQPVPNPATWLW | failed
MDGGFVRVCLLASGSKGNSLFVESDGTRVLIDAGLSAREIVRRLAVIEVEPADLDGLFISHEHVDHVRGVGVLARKYRLPVHVSYPTHHEVREGFGDAPVVEFESGYSFGFRDLLIDPFPITHDACDPVGFTIESKEGKVGIATDLGTATRLVADKLKRCRVLVLESNHDEEMLMGGPYPWHLKQRIKSRHGHLSNNDSAALLAEVLHPGLEGLFLAHLSEVNNDPAVAKEVAENLLVAQTTCSPRLIVGDQYRPSETLTL | failed
MDSNTFVSTNIKKERNVDSVLSKGKPVSILLMGTDTGELGRNWVGRTDSMILVIINPKTKKTLLMSIPRDSMVSIPGYEYTFPQKINAAYEYPANGKGHPETSIKTVEKWLNVPIDFYGIVNMEALEQITNKAGGISVKSPLTFTFSEDTAHDYGNNLYTFTKGSTKYKYYKNGSTLTKTSNIMNGAAALAFTRMRYNDPLGDYGRTLRQRLVFEAIAKKATVLIPQIVNKKFLNSISKQGKTDLTFNDMVTLASNYRKALKNIKSDSVQGTDYEYSGISYQVVASKEKQRVTNKIRKFLGLKKAKSGPLYASKVTNGVVILEHHHHHH | failed
MKGIKSACALIVLTFFSALTQAATAVEMAKQAYFLIERDPLDLDQRNEASYLIQRANVLDGDEPWVAVAQSRLTLVSGYKVGQRHDRRAYEESAVSTARQQAERAVRNGPNLAMAHVQLAMVLIIQGELRTAWDHLNTADSLDEQSFYPWYLRTVIAIHHKDEKFAAEGFKEIESRASQKYQKRLLLHERMRLAKATKNLEERDRLHRKMIELDPDYAYAWGNYGSFLLGQKRYREAVHNLERAVELKPYGLAVSQLAEARRKLNQAF | failed

Reference: a protein production outcome set (Wang et al. 2014)
